In this data set the test system is MS2 coat protein. The data set is described as follows: apparent KD of MS2 coat protein; designed switch direction (-1 OFF switch, 1 ON switch): -1; higher = weaker reporter binding. An outline of the steps: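 The reported apparent KD is a per-design median over clusters, from curve fits of normalised cluster fluorescence. Protein titrations used SNAP-549-labelled MS2 coat protein, doubled from 0.7 or 1.5 nM to 3 µM, in Tris-HCl pH 7.5 buffer with KCl, MgCl2, BSA, DTT, tRNA and Tween-20, with no input, 200 uM small-molecule ligand, or an oligonucleotide input. The RNA switches were transcribed on Illumina chips by stalled E. coli RNA polymerase.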

Setting [1] is: input ligand: microRNA oligo, concentration not stated.
Where [2] appears, read: Eterna round: R95, input ligand: FMN 200 uM.
Where [3] appears, read: Eterna round: R95, input ligand: microRNA oligo, concentration not stated.
Setting [4] is: Eterna round: R95, input ligand: none.

This note sets out measurements from the supplement of paper PMC9170038.

In the case of “GGUCAGAUGGUAGGAUAUCCAUAUCGAGUGACCCUUUCAUAACAUGAGGAUCACCCAUGUCGGUGGGAGAAGGGCCGUACGGCG [salish99_ExNG02_R04_010] (Eterna round: R96, puzzle: Exclusion NG 2)”, the “apparent KD of MS2 coat protein” value stood at 0.0439 µM (input ligand: FMN 200 uM), 0.0328 µM under setting [1] and 0.0417 µM (input ligand: none).

For “AAAGAAGAGAGAAAAUAACACAUGAGGAUCACCCAUGUGAGAAGUUGAGGGUGAUACAGGCUUUUUGCUCGUCUUAU (puzzle: Sensor v3, turn-off variant 1)”, the “apparent KD of MS2 coat protein” value is 0.233 µM under setting [2], 0.263 µM under setting [3] and 0.332 µM under setting [4].

Turning to “UACGAGUUAGGAUAUGCUUUGGGCUCGCUUUCCUUCGAUAAACUUGAGGAUCACCCAAGUAGAAGGAACUUGUA [Mod 34 - Jieux - Exclusion 2] (Eterna round: R97, puzzle: Exclusion 2)”, the “apparent KD of MS2 coat protein” value reads like this: (input ligand: FMN 200 uM) 0.0492 µM; (input ligand: none) 0.0296 µM.

Regarding “CUACUGUGAGGAUAUGGUGAGUAGUGCCUGAGCGCUGCUCACCAGAAGGCACAUGAGGAUCACCCAUGUAUGAC [JL-ex4-2.03 denovo] (puzzle: Exclusion 4)”, the “apparent KD of MS2 coat protein” value under setting [3] is 0.0435 µM.

Consider “AGCGAAAAGACAGGAUAUGAGAAUAGAUAGAGCUCAGAAGGGUCACAUGAGGAUCACCCAUGUAAAGUCUUGAGGCUGCGUGGU [Prohibition 11 - Jieux - Exclusion NG 1] (Eterna round: R96, puzzle: Exclusion NG 1)”, for which the “apparent KD of MS2 coat protein” value runs as follows: (input ligand: FMN 200 uM) 0.184 µM; under setting [1], 0.0434 µM; (input ligand: none) 0.0556 µM.

In the case of “AUAAAUCAUGUAGGAUAUGUGUGGCGAAGCUAUACAGAAGGACAUGAGGAUCACCCAUGUUCUUCCGUCUGCGUACAGACGGAA [11th something] (Eterna round: R96, puzzle: Exclusion NG 1)”, the “apparent KD of MS2 coat protein” value is 0.228 µM (input ligand: FMN 200 uM), 0.0191 µM under setting [1] and 0.029 µM (input ligand: none).

With “UCCUGACAUGAGGAUCACCCAUGUGAGGAUAUGUGGAUCGAGACAACUCUCGGUCCGUGCAGAAGGCACAGGGC [EX1 A.20] (Eterna round: R97, puzzle: Exclusion 1)”, the “apparent KD of MS2 coat protein” value (input ligand: FMN 200 uM) turned out to be 0.0281 µM and the “apparent KD of MS2 coat protein” value (input ligand: none) is 0.0203 µM.

Consider “UACUUCCGAGGAUAUACAUGAGGAUCACCCAUGUGCUUCAGCAUCUAAUGAUGCAUGGGUAGAAGGCGGUAGUU [LRO-Excl3-20] (puzzle: Exclusion 3)”, for which the “apparent KD of MS2 coat protein” value under setting [3] is 0.056 µM.

In the case of “CAGGAUAGAGGAUAUACAUAGAUACAGAUUCAUGUGAUCCUACAUGAGGAUCACCCAUGUAGAAGGCUAACCUG [Fiskers Ex 2 - 24] (puzzle: Exclusion 2)”, the “apparent KD of MS2 coat protein” value under setting [3] came out at 0.306 µM.

As to “GAUGAGCAUGUCAGGAUAUCCACUCUAAUAAAACAGGAGAAGGGACAUGAGGAUCACCCAUGUUCUAGACAUGA [Latealedi] (puzzle: Brourd's mod of Exclusion 4)”, the “apparent KD of MS2 coat protein” value is 0.0145 µM under setting [2], 0.0131 µM under setting [3] and 0.014 µM under setting [4].

Regarding “GCACCAUGGCUUACUAGCCGUUAAACAUGAGGAUCACCCAUGUAGGAUAUGGUCUGGAUUACAGGCCAGAAGGGCGUAAGGUGC [JL Eli 026 mod] (Eterna round: R96, puzzle: Exclusion NG 3)”, the “apparent KD of MS2 coat protein” value came to 0.0159 µM (input ligand: FMN 200 uM), 0.0131 µM under setting [1] and 0.0198 µM (input ligand: none).

In the case of “AUGGGUACUUUCGGAGCGACAUGAGGAUCACCCAUGUAUGUUGAGGAUAUCCACUGCUAAGGACGGGAGAAGGCAGUGUACUGU [Ex NG3 #83] (Eterna round: R96, puzzle: Exclusion NG 3)”, the “apparent KD of MS2 coat protein” value by setting is: (input ligand: FMN 200 uM) 0.0261 µM; under setting [1], 0.016 µM; (input ligand: none) 0.0264 µM.

For the sequence “AGUACUAACACGGUUGUGUUAGUACAAUAAGCUUGUGAAACAUGAGGAUCACCCAUGUCCUCAUAAGCUCGUCUUAU [salish99_TOv2_r3_070] (Eterna round: R96, puzzle: Sensor v3, turn-off variant 2)”, the “apparent KD of MS2 coat protein” value was 0.015 µM (input ligand: FMN 200 uM), 0.464 µM under setting [1] and 0.0173 µM (input ligand: none).

For the sequence “CACCUGAAGACAGGAUAUCAUACAUGAGGAUCACCCAUGUAAUAAAUGAGAAUUUCGAAUGUAAUUGAGAAGGGUCGAUAAGGC [Ostricism 91 - Jieux - Exclusion NG 2] (Eterna round: R96, puzzle: Exclusion NG 2)”, the “apparent KD of MS2 coat protein” value reads like this: (input ligand: FMN 200 uM) 0.0789 µM; under setting [1], 0.0306 µM; (input ligand: none) 0.0306 µM.

“GAUCCGAUUGUCAGGAUAUUCAAAACGGCGCAAAAGAAGAAGGGACAUGAGGAUCACCCAUGUAUACGCCACCA [Usisbima] (Eterna round: R97, puzzle: Brourd's mod of Exclusion 4)”: the “apparent KD of MS2 coat protein” value (input ligand: FMN 200 uM) is 0.0367 µM and the “apparent KD of MS2 coat protein” value (input ligand: none) amounted to 0.332 µM.

On to “UAUGAAGUAGGAUAUACAUGAGGAUCACCCAUGUCCUUACUGAGACCGGGCACGGCUCGUAGAAGGGCUUUCGA [Eternabot (L2) Solution 50] (Eterna round: R97, puzzle: Exclusion 3)”, for which the “apparent KD of MS2 coat protein” value is, setting by setting: (input ligand: FMN 200 uM) 0.0367 µM; (input ligand: none) 0.0407 µM.

With “AUAAUGUGAGGAUAUCAGUCGACUAGCCUCGGCUAGUCGACUGAGAAGGCACAUGAGGAUCACCCAUGUGUUUC [E4/15-A2] (Eterna round: R97, puzzle: Exclusion 4)”, the “apparent KD of MS2 coat protein” value (input ligand: FMN 200 uM) is 0.0439 µM and the “apparent KD of MS2 coat protein” value (input ligand: none) was found to be 0.0184 µM.

“UUAGCGCGAGGAUAUGCGGUUUGUGCUUUGGGCCCUGGCGUACAUGAGGAUCACCCAUGUAGAAGGCGUGUUGU [Apr-15 SS2-50] (puzzle: Exclusion 2)”: the “apparent KD of MS2 coat protein” value under setting [3] stood at 0.0207 µM.

For the sequence “GAUUCGGGAGGAUAUACAUGAGGAUCACCCAUGUGUAUAUAAUAUGUUAAGUUAUCAUGUAGAAGGUUUGGGUC [-16.5, -16.2 kcal, 30% A] (Eterna round: R97, puzzle: Exclusion 3)”, the “apparent KD of MS2 coat protein” value is, setting by setting: (input ligand: FMN 200 uM) 0.038 µM; (input ligand: none) 0.049 µM.

On to “AGCCACAGAGGAUAUACAUACAUCCAGUAGCGGAUAUCGCUACAUGAGGAUCACCCAUGUAGAAGGCUGUGGCA [Omei Ex2 BD B22] (Eterna round: R97, puzzle: Exclusion 2)”, for which the “apparent KD of MS2 coat protein” value by setting is: (input ligand: FMN 200 uM) 0.148 µM; (input ligand: none) 0.611 µM.

Turning to “GAUUAUGCGAGCUUUAGGGACAUGAGGAUCACCCAUGUUCGUCUUAUUGAUCUAGGUACACUAACAUACCUAAAUCU [JMF 17] (puzzle: Sensor v3, turn-off variant 1)”, the “apparent KD of MS2 coat protein” value reads like this: under setting [2], 0.0198 µM; under setting [3], 0.0381 µM; under setting [4], 0.0231 µM.

In the case of “ACAUGAGGAUCACCCAUGUGAAACCAAUGGCUGACUUUGAGACAGGAUAUUCGUGCAUAUCAUACGAAGAAGGGUCAUUACUGG [Deportation 96 - Jieux - Exclusion NG 3] (Eterna round: R96, puzzle: Exclusion NG 3)”, the “apparent KD of MS2 coat protein” value (input ligand: FMN 200 uM) was determined as 0.0635 µM, the “apparent KD of MS2 coat protein” value under setting [1] is 0.0458 µM and the “apparent KD of MS2 coat protein” value (input ligand: none) is 0.0552 µM.

As for “AGUAAUUCAAGAGGAUAUCACAUGAGGAUCACCCAUGUAUAGCGCGCUACGCUAGUCCUCGUAUUUGAGAAGGUUUGAUAAAAG [Mat - Exclusion NG 2 - Mod of JL - D76] (Eterna round: R96, puzzle: Exclusion NG 2)”, the “apparent KD of MS2 coat protein” value turned out to be 0.0187 µM (input ligand: FMN 200 uM), 0.0134 µM under setting [1] and 0.0175 µM (input ligand: none).

For “CGUAGCAAUGUGAGGAUAUCUAGAGCUUCGGCUCUAGAGAAGGCACAUGAGGAUCACCCAUGUGAUUAGCUACG [BmEx4/9-B1] (Eterna round: R97, puzzle: Brourd's mod of Exclusion 4)”, the “apparent KD of MS2 coat protein” value runs as follows: (input ligand: FMN 200 uM) 0.989 µM; (input ligand: none) 0.347 µM.

As for “AACGGUGGGUAGGAUAUCCGGUUCUAGUUGCCAGGAGAAGGGCCCACAUGAGGAUCACCCAUGUGGGUGGGCUC [Maesri] (puzzle: Exclusion 6)”, the “apparent KD of MS2 coat protein” value under setting [3] worked out at 0.0436 µM.

As for “UUUAAUUUUUUUUUUUUACAAGCUUUUUGCUCGUCUUAUACAUGAGGAUCACCCAUGUGGGUAAGGGAUAAAUUAUC [JMF 37] (Eterna round: R96, puzzle: Sensor v3, turn-off variant 2)”, the “apparent KD of MS2 coat protein” value by setting is: (input ligand: FMN 200 uM) 0.0654 µM; under setting [1], 0.0518 µM; (input ligand: none) 0.059 µM.

For “GUAGUGACUCGAGGAUAUCCCGACUCCUGGUCAGGAGAAGGCGACGUCAUAGCACAUGAGGAUCACCCAUGUCUUACACAUACG [Eternabot solution 32] (Eterna round: R96, puzzle: Exclusion NG 1)”, the “apparent KD of MS2 coat protein” value reads like this: (input ligand: FMN 200 uM) 0.0256 µM; under setting [1], 0.0195 µM; (input ligand: none) 0.0239 µM.

Consider “AAUUUACAUGAGGAUCACCCAUGUGAGGAUAUAUGCAAACAAUUUUUAUUAAUAAAGCAUAGAAGGCGCGUGAU [JR_Exc1_Sub043] (Eterna round: R97, puzzle: Exclusion 1)”, for which the “apparent KD of MS2 coat protein” value by setting is: (input ligand: FMN 200 uM) 0.0905 µM; (input ligand: none) 0.0657 µM.

As to “GCUUGUAGAGGAUAUACAAGGGCCUUAGCGGAAAACUCCGCACAUGAGGAUCACCCAUGUAGAAGGCUACCACC [Isrianqu] (puzzle: Exclusion 2)”, the “apparent KD of MS2 coat protein” value under setting [3] worked out at 0.0151 µM.

As for “GAGUUAGCGUGAGGAAUAUACAUGAGGAUCACCCAUGUUAGCUUAUAUAUUGCUCGUCUUAUAACAACAAUUAACUG [Mod JX-Electric-eye2] (Eterna round: R97, puzzle: Sensor, turn-off variant 1)”, the “apparent KD of MS2 coat protein” value by setting is: (input ligand: FMN 200 uM) 0.0254 µM; (input ligand: none) 0.0272 µM.

Consider “GGGCGUGAAGGAUAUACAUGAGGAUCACCCAUGUGGGAGGAGAAUGGUGAGGAGGCUGGUAGAAGGUCAGGAGG [JR_Exclusion3_Sub009] (puzzle: Exclusion 3)”, for which the “apparent KD of MS2 coat protein” value under setting [3] was 0.0375 µM.
